# Measured values as given in patent publication US20250361298A1 (CARTOGRAPHY BIOSCIENCES, published 2025).
# Changes are numbered by the printed parent chain. Starred links: 1 amine or outer side, 2 acyl side, 3 side chain; linkers in the order of their positions; H or OH if unused. Positions of bridges follow the written chain, without caps; N, C: chain ends. Primed or numbered codes have the meaning given here. PEG2′ = PEG2 spacer at the C-terminus, followed by 3-mercaptopropionate; CH2 = C([*:1])[*:2]
# T1: Cynomolgus LY6G6D ectodomain fused to mouse IgG2A Fc (monovalent display, knob-in-hole) (cynomolgus, UniProt O95868 20-104 (human entry))
# T1 construct: Same design as the human construct; Tags are not described; also called cyno LY6G6D-mouse Fc fusion antigen; cynomolgus monkey LY6G6D
# T1 chain: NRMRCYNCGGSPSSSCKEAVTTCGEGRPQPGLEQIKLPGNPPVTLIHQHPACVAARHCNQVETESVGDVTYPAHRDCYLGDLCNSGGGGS
# T2: Human LY6G6D ectodomain fused to mouse IgG2A Fc (monovalent display, knob-in-hole) (human, biotinylated for BLI capture (site not stated))
# T2 chain: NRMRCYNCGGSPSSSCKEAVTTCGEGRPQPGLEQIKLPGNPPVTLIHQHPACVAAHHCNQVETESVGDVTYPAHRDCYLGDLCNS
# T3: LY6G6D cyclic peptide Ac-RDC*YLGDLC*NS-PEG2-3-mercaptopropionate (bridge 3-9 via CH2; not fully specified; printed as Ac-RDC*YLGDLC*NS-PEG2-3-mercaptopropionate)
# T3 construct: Represents the most membrane-proximal stretch of LY6G6D; also called octomer cyclic peptide
# T3 peptide: Ac-RDCYLGDLCNS-{PEG2′-3‑mercaptopropionate}
# B1: CB21-499-177 (antibody, V domains shown)
# VH: EVQLVESGGGVVQPGRSLRLSCAASGFTFSSYGMHWVRQAPGKGLEWVAVIWYDASNKEYAPSVKGRFTISRDNSKNTLYLQMNSLRAEDTAIYYCARPGEGDYWGQGTLVTVSS
# VL: DIQMTQSPSSLSASVGDRVTITCRASQGVRNDFGWFQQKPGKAPKRLIYGASSLQSGVPSRFSGSGSGTEFTLTISSLQPEDFATYYCLQQNSYPWTFGQGTKLEIK
# B2: CB21-498-142 (antibody, V domains shown)
# VH: EVQLVESGGGLVQPGGSLRLSCAASGFTFSSYAMNWVRQAPGKGLEGVSGISGSGGRIYYAESVKGRFQISRDNSKSTFYLQMNSLRAEDTAVYYCAKDLDVWGKGTTVTVSS
# VL: DVVMTQTPLSSPVTLGQSASISCRSSQSLVHSDANTYLNWLHQRPGQPPRLLIYKISNRFSGVPDRFSGSGSGTDFTLKISRVEAEDVGVYYCMQATQFPLTFGGGTKLEIK
# B3: CP1475 (heavy chain from CB21-498, light chain from CB21-513) (antibody, V domains shown)
# VH: B2 VH with V2M, G47C, S54N, Q69T
# VL: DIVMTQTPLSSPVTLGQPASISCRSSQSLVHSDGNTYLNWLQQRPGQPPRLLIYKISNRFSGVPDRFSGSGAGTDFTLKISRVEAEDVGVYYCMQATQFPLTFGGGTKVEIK
# notes: Chain-shuffled antibody
# B4: CP1481 (heavy chain from CB21-513, light chain from CB21-500) (antibody, V domains shown)
# VH: EVQLVDSGGGLVEPGGSLRLSCAASGFTFSSYAMTWVRQAPGKGLEWVSGISGSGGVTDYADSVKGRFTISRDNSKNTLYMQMNSLRAEDTAVYYCAKDLGVWGKGTTVTVSS
# VL: B2 VL with S18P, S28N, A34G, H42Q, S72A
# notes: Chain-shuffled antibody
# B5: CP1471 (heavy chain from CB21-469, light chain from CB21-500) (antibody, V domains shown)
# VH: B2 VH with G47W, S54N, E62D, Q69T, S77N, F79L, A88V
# VL: B2 VL with S18P, S28N, A34G, H42Q, S72A
# notes: Chain-shuffled antibody
# B6: CP1479 (heavy chain from CB21-513, light chain from CB21-469) (antibody, V domains shown)
# VH: B4 VH
# VL: B2 VL with A34G, S72A
# notes: Chain-shuffled antibody
# B7: CP1473 (heavy chain from CB21-498, light chain from CB21-469) (antibody, V domains shown)
# VH: B2 VH with V2M, G47C, S54N, Q69T
# VL: B2 VL with A34G, S72A
# notes: Chain-shuffled antibody
# B8: CP1478 (heavy chain from CB21-500, light chain from CB21-513) (antibody, V domains shown)
# VH: B2 VH with A40V, I51M, E62D, Q69T, I70M, S77N, T78M, F79V, V93L
# VL: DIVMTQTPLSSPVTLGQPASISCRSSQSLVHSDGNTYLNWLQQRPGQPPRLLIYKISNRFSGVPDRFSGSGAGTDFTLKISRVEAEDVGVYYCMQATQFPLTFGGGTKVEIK
# notes: Chain-shuffled antibody
# B9: CP1474 (heavy chain from CB21-498, light chain from CB21-500) (antibody, V domains shown)
# VH: B2 VH with V2M, G47C, S54N, Q69T
# VL: B2 VL with S18P, S28N, A34G, H42Q, S72A
# notes: Chain-shuffled antibody
# B10: CP1476 (heavy chain from CB21-500, light chain from CB21-469) (antibody, V domains shown)
# VH: B2 VH with A40V, I51M, E62D, Q69T, I70M, S77N, T78M, F79V, V93L
# VL: B2 VL with A34G, S72A
# notes: Chain-shuffled antibody
# B11: CB21-512 (antibody, V domains shown)
# VH: EVQLVESGGGVVQPGRSLRLSCAASGFTFSSYGMHWVRQAPGKGLEWVAVLWYDGINKNYADSVKGRFAISRDNSKNTLYLQMNSLRVEDTAVYFCVRVQGDYWGQGTLVTVSS
# VL: DIQMTQSPSSLSASVGDRVTITCRASQGIRNDLTWYQQKPGKAPKRLIYDTSSLQSGVPSRFSGSRSGTEFTLTISSLQPEDFASYFCLQHNIYPFTFGQGTKLEIK
# notes: Human Fc formats; monovalent antibody in BLI
# B12: CB21-470 (antibody, V domains shown)
# VH: B11 VH with S30N, F95Y
# VL: B11 VL with I93S
# notes: as for B11
# B13: CB21-502 (antibody, V domains shown)
# VH: B11 VH with A61V
# VL: B11 VL with R66G, E70D
# notes: as for B11
# B14: CB21-471 (antibody, V domains shown)
# VH: B1 VH with A40V, A55G, E59D, A61V, P62D, I93V
# VL: B1 VL with V29I, F36Y, L104V
# notes: as for B11
# B15: CB21-499 (antibody, V domains shown)
# VH: B1 VH with A55G, E59D, P62D
# VL: B1 VL
# notes: as for B11
# B16: CB21-477 (antibody, V domains shown)
# VH: B1 VH with A55G, E59D, P62D, I93V
# VL: B1 VL with V29I, F33L, F36Y, K42R, G50A, L104V
# notes: as for B11
# B17: CB21-469 (antibody, V domains shown)
# VH: B2 VH with G47W, S54N, E62D, Q69T, S77N, F79L, A88V
# VL: B2 VL with A34G, S72A
# notes: Cloned into knob/hole human Fc and light chain vectors; IgG and bispecific TCE formats were made; BLI used a monovalent antibody format
# B18: CB21-513 (antibody, V domains shown)
# VH: B4 VH
# VL: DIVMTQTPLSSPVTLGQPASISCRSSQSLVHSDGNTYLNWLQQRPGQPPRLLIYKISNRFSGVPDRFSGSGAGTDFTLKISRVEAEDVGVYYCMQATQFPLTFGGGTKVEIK
# notes: as for B11
# B19: CB21-498 (antibody, V domains shown)
# VH: B2 VH with V2M, G47C, S54N, Q69T
# VL: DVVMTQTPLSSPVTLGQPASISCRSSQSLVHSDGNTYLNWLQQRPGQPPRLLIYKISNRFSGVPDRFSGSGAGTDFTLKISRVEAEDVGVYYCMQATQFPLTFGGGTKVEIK
# notes: as for B11
# B20: CB21-500 (antibody, V domains shown)
# VH: B2 VH with A40V, I51M, E62D, Q69T, I70M, S77N, T78M, F79V, V93L
# VL: B2 VL with S18P, S28N, A34G, H42Q, S72A
# notes: as for B11
# B21: CB21-522 (antibody, V domains shown)
# VH: EVQLVQSGAEVKKPGASVKVSCKASGYTFTGYFIHWVRQAPGQGLEWMGWINPNSGGTYYAQEFQGRVTMTRDTSISTAYMELIRLRSDDSAVYYCARDISLVGDYWGQGTLVTVSS
# VL: DVVMTQSPLSLPVTLGQPASISCRSSQSLVYSDGNTYLNWFQQRPGQSPRRLIYKVSNRDSGVPERFSGIGSGTDFTLEISRVEAEDVGVYYCMQGSHWPLTFGGGTKVEIK
# notes: as for B11
# Molecular target: T1, Cynomolgus LY6G6D ectodomain fused to …
# Assay: SPR, Biacore 8K+, cyno LY6G6D-mouse Fc captured by anti-mouse antibody on CM5, antibody as analyte 50-0.7813 nM, 25 C
# Protocol: (§1) SPR multipoint kinetic analyses against human and cynomolgus monkey LY6G6D was also performed. LY6G6D binding kinetics were performed via surface plasmon resonance (SPR) on a Biacore 8K+. A Mouse Antibody Capture Kit, type 2 (Cytiva 29215281) was used for amine coupling to a CM5 sensor chip (BR100530) and the immobilization was performed exactly according to the manufacturer's standard settings. To begin an SPR run, 7 startup cycles were run following chip immobilization to establish sensor stability. In these, LY6G6D-mouse Fc fusion antigen was first flowed into just flow cell 2 at 10 uL/min at a 5 nM concentration with a 120 sec contact time. 1×HBS-EP+ buffer, pH 7.6 was then flowed at 30 μL/min with a 420 sec contact time into the chip. Finally regeneration solution (10 mM Glycine-HCl pH 1.7) was flowed at 30 uL/min with a 120 sec contact time.
# (§2) After this point, 16 analysis cycles were run, 8 first with human LY6G6D-mouse Fc fusion antigen and 8 next for cyno LY6G6D-mouse Fc fusion antigen. In both antigen formats, the antigen was captured at 10 uL/min at a 5 nM concentration diluted into 1×HBS-EP+ buffer, pH 7.6 with a 120 sec contact time. Next, selected antibodies diluted into 1×HBS-EP+ buffer, pH 7.6 were run as the analytes across a 7-point dilution series, 50 nM to 0.7813 nM with two-fold dilutions. A contact time of 300 sec followed by dissociation time of 1200 sec at a flow rate of 30 μL/min was used. Regeneration solution (10 mM Glycine-HCl pH 1.7) was flowed at 30 μL/min with a 120 sec contact time. Finally, a wait step of 60 sec with flow rate of 30 μL/min 1×HBS-EP+ buffer, pH 7.6 was used to re-establish sensor stability. These SPR binding studies were performed at 25° C.
Kd [nM],koff [s⁻¹],kon [M⁻¹ s⁻¹],Binder
0.9,0.000149,166000,B1
5.57,0.000448,80500,B2

# Molecular target: T2, Human LY6G6D ectodomain fused to mouse …
# Assay: BLI, chain shuffle round 1; antigen not named in the table (LY6G6D ectodomain as in Example 3)
Kd [nM],koff [s⁻¹],kon [M⁻¹ s⁻¹],Binder
0.91,0.000105,116000,B3
17.6,0.000264,15000,B4
12.7,0.0017,134000,B5
16.5,0.00053,32200,B6
0.554,8.4e-05,152000,B7
5.35,0.000705,132000,B8
0.699,9.87e-05,141000,B9
3.15,0.000413,131000,B10

# Molecular target: T2, Human LY6G6D ectodomain fused to mouse …
# Assay: SPR, Biacore 8K+, LY6G6D-mouse Fc captured by anti-mouse antibody on CM5, antibody as analyte 50-0.7813 nM, 25 C
# Protocol: as §1, §2
Kd [nM],koff [s⁻¹],kon [M⁻¹ s⁻¹],Binder
0.385,7.12e-05,185000,B1
3.2,0.00031,96700,B2

# Molecular target: T3, LY6G6D cyclic peptide …
# Assay: flow binding assay on cyclic-peptide beads
row,binding result,Binder
1,binds,B11
2,binds,B12
3,binds,B13
4,binds,B14
5,binds,B15
6,binds,B16
7,binds,B17
8,binds,B18
9,binds,B19
10,binds,B20
11,binds,B21
